Experimental data reported in patent US20240041978A1, “LA PROTEIN AS A NOVEL REGULATOR OF OSTEOCLASTOGENESIS” (The U.S.A., as Represented by the Secretary, Department of …, priority 2021, published 2024).
“Also recorded” adds a separate entry of the source. Peptide text beside a SMILES is read from it. * marks the point of attachment. Cbz = O=C(OCc1ccccc1)*; CH2F = FC*

Key:
[1] = test system: human monocyte-derived osteoclasts; assay: Osteoclast fusion assay (number of fusion events, fluorescence microscopy); format: cell-based; settings: for osteoclast multinucleation / fusion: screen of La 188-375 peptide library, control no addition; for formation of multinucleated syncytia (osteoclast fusion): recombinant protein ~40 nM added end of day 2 post-RANKL, overnight
Description: Osteoclasts: Elutriated monocytes from healthy donors were obtained. Cells were plated at 2.9×10^5 per cm^2 in 35 mm dishes with polymer coverslip bottoms (Ibidi #81156) for imaging or 35 mm or 10 cm dishes for biochemical experiments in complete media [α-MEM supplemented with 10% Fetal Bovine Serum (FBS) and penicillin-streptomycin-L-glutamine (Gibco Invitrogene #12571063; #26140079 and #10378016, respectively)]. Monocytes were differentiated to M2 macrophages in the presence of 100 ng/ml M-CSF for 6 days and then differentiated with 100 ng/ml M-CSF and 100 ng/ml RANKL for 3 days unless indicated otherwise. RAW 264.7 cells (ATCC, Manassas, VA, #TIB-71) were maintained in DMEM supplemented with 10% FBS to a maximum of 8 passages. RAW 264.7 cells were differentiated to osteoclasts in the presence of 100 ng/ml murine RANKL for 5 days. To separate unfused mononucleated and fused, multinucleated RAW 264.7 cells into separate fractions, advantage was taken of the much stronger adherence of multinucleated cells to culture dish plastic. After washing in PBS, mixed RAW cultures (following RANKL differentiation) were left in Ca^2+ and Mg^2+ free PBS for 10 minutes at room temperature. Culture dishes were then tapped on the lab bench and a large portion of unfused, mononucleated RAW cells were released, and these released cells were collected via centrifugation. This process was repeated 2-4 times until dishes were left with a population of primarily fused, multinucleated syncytia. Mononucleated and multinucleated cell fractions were then processed for biochemical or imaging experiments as described below.
Constructs & Recombinant proteins & Transfection: Recombinant La 1-408, 1-375, 1-375 Q20A_Y24A_D33I, 1-187 and 188-375 were amplified with primers designed with overlapping sequences and inserted between NdeI/HindIII in the V78 pET28A E. coli expression vector, adding to each a N-terminal 6×his affinity tag. La 1-408 was expressed as a recombinant protein in E. coli and purified using IMAC columns by SD Biosciences (San Diego, CA). The remaining constructs were transformed into BL2 (DE3) chemically competent E. coli (Thermo Fisher Scientific) and protein expression was induced with IPTG. Cells were lysed with Bugbuster (Sigma), and 6×his-La proteins were affinity purified using HisPur Cobalt Spin columns (Thermo Fisher Scientific), each according to the manufacturer's instructions. Endotoxin contaminates were depleted from affinity purified 6×his-La proteins using Pierce high-capacity endotoxin removal columns (Thermo Fisher Scientific), according to the manufacturer's instructions. Proteins were then sterile filtered, aliquoted and kept at −80 C.
Plasmids were introduced into primary osteoclasts at day 2 of RANKL stimulation via jetPRIME (Polyplus Transfection). FLAG-La 1-408, FLAG-La 1-375 and FLAG-La 1-375 Q20A_Y24A_D33I plasmids were a gift of the Maraia Lab (NICHD). Briefly, SSB (UniProt P05455) was inserted between HindIII and BamHI the pFLAG-CMV2 vector (Sigma). “Uncleavable” La was produced by taking the FLAG-La 1-408 plasmid and making two point mutations at amino acids D371A and D374A, abrogating the caspase cleavage sites at the C-terminal region of the protein (Emory Integrated Genomics Core). siRNA were introduced into primary osteoclasts after 1 day of RANKL stimulation via Lipofectamine RNAiMAX (Thermo Fisher Scientific). Non-targeted (Cat #4390843) and SSB-targeted (Cat #4392420_ID:s13469) siRNA were introduced at a concentration of 5 ng/ml (Silencer Select, Ambion).
Fusion Assays: Osteoclast fusion in the culture systems was evaluated by fluorescence microscopy (Verma et al., J Biol Chem 293, 254-270, doi:10.1074/jbc.M117.809681 (2018)). Briefly, cells were fixed with 4% paraformaldehyde at timepoints of interest, permeabilized with 0.1% TRITON™ X-100 and blocked with 5% FBS. Cells were then stained with phallodin-ALEXAFLURO®488 and Hoechst to label cells' actin cytoskeleton and nuclei, respectively. […]

[2] = biological target: T1, Anx A5 on PS containing liposomes (Homo sapiens, UniProt P08758); assay: Liposome binding assay
T1 sequence (P08758 1-320): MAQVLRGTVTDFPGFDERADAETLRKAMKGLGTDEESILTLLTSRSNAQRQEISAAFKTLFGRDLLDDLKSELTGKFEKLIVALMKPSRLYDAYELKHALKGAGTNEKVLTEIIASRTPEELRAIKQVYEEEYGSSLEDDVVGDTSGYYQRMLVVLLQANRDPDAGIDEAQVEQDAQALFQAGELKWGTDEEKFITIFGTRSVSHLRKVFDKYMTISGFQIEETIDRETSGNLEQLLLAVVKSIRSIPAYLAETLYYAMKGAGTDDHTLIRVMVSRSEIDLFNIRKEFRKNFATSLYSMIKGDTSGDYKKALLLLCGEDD
Source text: Anx A5 binds to PS containing membranes in a Ca^2+-dependent manner. Recombinant La was introduced alone or along with recombinant Anx A5 to PS containing liposomes and pelleted liposomes by centrifugation to evaluate whether La was enriched with liposomes or in supernatant (FIG. 12C).
Liposome binding assay: Multilamellar liposomes were formed from pure PC or 9:1 (w/w) mixture of PC and PS. Both lipid compositions were supplemented with 0.5 mol % of lissamine rhodamine phosphatidylethanolamine. To prepare liposomes, lipid stock in benzene/methanol (95:5) was frozen in liquid nitrogen and freeze-dried overnight using SPEEDVAC™ (Savant). Dried lipid was resuspended in aqueous buffer (100 mM NaCl, 10 mM Hepes, pH 7.0) at 1 mM total lipid concentration and vortexed. Proteins and CaCl2 were added to the liposomes and the mixtures were incubated on ice for 30 minutes. To pellet, liposomes were centrifugated at 15,000 g for 20 minutes to pellet, based on rhodamine fluorescence ˜95% of liposomes. Centrifugated samples were then fractionated into a top, liposome-depleted fraction and a bottom fraction containing liposomes and liposome-bound proteins. Fractions were then solubilized via addition of Laemmli buffer (Bio Rad) and separated via SDS-PAGE, as described above. Recombinant La and recombinant Anx A5 were detected via their n-terminal 6×His tag via α-6×His antibody (Abcam) and signals for soluble vs liposome bound protein fractions were evaluated via densitometry. Data were presented as a percentage of protein signal bound to liposomes where: […]

[3] = test system: production of LMW La in human osteoclasts; assay: La cleavage and localization in differentiating osteoclasts with caspase inhibitor (Western blot, immunofluorescence); format: cell-based; settings: for production of LMW (cleaved) La: Western blot, differentiating human osteoclasts, Day 3-4 post-RANKL
Description: To identify the functional form of La associated with osteoclastogenesis, the relationship was determined between the appearance of LMW La and fusion between osteoclasts. During apoptotic progression human La is cleaved by caspases at […], removing La's NLS (Rutjes et al., Cell Death Differ 6, 976-986, doi:10.1038/sj.cdd.4400571 (1999); Ayukawa et al., J Biol Chem 275, 34465-34470, doi:10.1074/jbc.M003673200 (2000)).
Biochemical approaches: Cells were lysed on ice via pulse sonication and rotated end over end at 4° C. for 45 minutes in the presence of protease inhibitors (cOmplete, Sigma, #118361700010). Steady-state protein levels were evaluated via SDS-PAGE followed by immunoblotting. Bulk proteins were evaluated via SDS-PAGE followed by silver stain (SilverQuest, Thermo Fisher Scientific). Bands of interest were cut from silver stained gels, destained and evaluated by liquid chromatography coupled with tandem mass spectrometry (Proteomics Core, NHLBI). The selective enrichment of cytosolic vs membrane associated protein fractions was carried out using MEM-PER™ Plus Membrane Protein Extraction Kit (Thermo Fisher Scientific, catalogue #89842) according to the manufacturer's instructions.
Fluorescence Microscopy Imaging: In the immunofluorescence experiments the cells were washed with PBS and fixed with warm freshly prepared 4% formaldehyde in PBS (Sigma, F1268) at 37° C. The cells were washed three times with PBS. To permeabilize the cells, they were incubated for 5 min in 0.1% TRITON™ X100 in PBS. The cells were again washed three times with PBS and placed into PBS with 10% FBS, for 10 min at the room temperature to suppress non-specific binding. Then the cells were incubated with primary antibodies for 1 hour in PBS with 10% FBS. […]

Molecule	osteoclast multinucleation / fusion [1]	formation of multinucleated syncytia (osteoclast fusion) [1]	other results
AKLRAKQEQEAKQKLEEDAEMKSLEEKIGC (inhibitory La peptide) [Peptide 2]	inhibit fusion and the formation of multinucleated osteoclasts; also recorded: specifically inhibit		
Anx A5: recombinant annexin A5, PS-binding peripheral membrane protein [reference compound]			pelleting with liposomes ([2]; PS containing liposomes, La with Anx A5, Ca^2+): pelleted with liposomes; pelleting with liposomes ([2]; liposomes lacking PS): neither La nor Anx A5 pelleted
GEVEKEALKKIIEDQQESLNKWKSKGRRFK (inhibitory La peptide) [Peptide 9]	inhibit fusion and the formation of multinucleated osteoclasts; also recorded: specifically inhibit		
COC(=O)C[C@H](NC(=O)[C@H](C)NC(=O)[C@@H](NC(=O)OCc1ccccc1)C(C)C)C(=O)CF [z-VAD, z-VAD-fmk] (Cbz-Val-Ala-Asp(OMe)-CH2F)			ability of osteoclasts to form multinucleated syncytia ([1]; pan caspase inhibitor vs vehicle, Day 3 post-RANKL): significantly perturbed; production of LMW (cleaved) La [3]: blocked; production of LMW (cleaved) La ([3]; listed as z-VAD-fmk): block the production of cleaved La; localization of FL La ([3]; α-FL La immunofluorescence, Day 3): premature retention of FL La within the nuclei
La 1-187: recombinant N-terminal half of La 1-375 (protein, UniProt P05455 1-187, looked up, fragment) MAENGDNEKMAALEAKICHQIEYYFGDFNLPRDKFLKEQIKLDEGWVPLEIMIKFNRLNRLTTDFNVIVEALSKSKAELMEISEDKTKIRRSPSKPLPEVTDEYKNDVKNRSVYIKGFPTDATLDDIKEWLEDKGQVLNIQMRRTLHKAFKGSIFVVFDSIESAKKFVETPGQKYKETDLLILFKDD		no effect	
La 188-375: recombinant amino acids 188-375 of human La (protein, listed as Homo sapiens) YFAKKNEERKQNKVEAKLRAKQEQEAKQKLEEDAEMKSLEEKIGCLLKFSGDLDDQTCREDLHILFSNHGEIKWIDFVRGAKEGIILFKEKAKEALGKAKDANNGNLQLRNKEVTWEVLEGEVEKEALKKIIEDQQESLNKWKSKGRRFKGKGKGNKAAQPGSGKGKVQFQGKKTKFASDDEHDEHDE	promoted fusion	greatly promoted	
La 1-408: recombinant full-length human La protein, N-terminal 6×his tag (protein, listed as Homo sapiens, N-terminal 6xHis tag, recombinant full-length human La protein, N-terminal 6×his tag) MAENGDNEKMAALEAKICHQIEYYFGDFNLPRDKFLKEQIKLDEGWVPLEIMIKFNRLNRLTTDFNVIVEALSKSKAELMEISEDKTKIRRSPSKPLPEVTDEYKNDVKNRSVYIKGFPTDATLDDIKEWLEDKGQVLNIQMRRTLHKAFKGSIFVVFDSIESAKKFVETPGQKYKETDLLILFKDDYFAKKNEERKQNKVEAKLRAKQEQEAKQKLEEDAEMKSLEEKIGCLLKFSGDLDDQTCREDLHILFSNHGEIKWIDFVRGAKEGIILFKEKAKEALGKAKDANNGNLQLRNKEVTWEVLEGEVEKEALKKIIEDQQESLNKWKSKGRRFKGKGKGNKAAQPGSGKGKVQFQGKKTKFASDDEHDEHDENGATGPVKRAREETDKEEPASKQQKTENGAGDQ		significantly promoted	
heat-inactivated La 1-408: recombinant heat-inactivated La 1-408 (protein, UniProt P05455 1-408, looked up, full-length heat-inactivated) MAENGDNEKMAALEAKICHQIEYYFGDFNLPRDKFLKEQIKLDEGWVPLEIMIKFNRLNRLTTDFNVIVEALSKSKAELMEISEDKTKIRRSPSKPLPEVTDEYKNDVKNRSVYIKGFPTDATLDDIKEWLEDKGQVLNIQMRRTLHKAFKGSIFVVFDSIESAKKFVETPGQKYKETDLLILFKDDYFAKKNEERKQNKVEAKLRAKQEQEAKQKLEEDAEMKSLEEKIGCLLKFSGDLDDQTCREDLHILFSNHGEIKWIDFVRGAKEGIILFKEKAKEALGKAKDANNGNLQLRNKEVTWEVLEGEVEKEALKKIIEDQQESLNKWKSKGRRFKGKGKGNKAAQPGSGKGKVQFQGKKTKFASDDEHDEHDENGATGPVKRAREETDKEEPASKQQKTENGAGDQ		not observed	
